Assay results: the supplement of paper PMC12042874
± gives the uncertainty stated by the source.

Assay: amyloid nucleation score (Sup35N fusion, yeast selection) (log enrichment); library NNK2; higher = more nucleation; inactive = no reads after selection
How it was run: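 Three technical output replicates were used for random libraries. Psi-negative yeast expressing peptides of 20 random codons fused to Sup35N were induced with 100 μM copper sulfate for 24 hours and grown 7 days at 30°C on medium lacking adenine and uracil, and input and output plasmid inserts were Illumina-sequenced, excluding sequences with under 100 input reads. The nucleation score is the DiMSum log enrichment of output over input reads, centred on the mode score of non-aggregating sequences.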

Substance	amyloid nucleation score
WLFDGGFSVKWPDRVSLARV	-1.14 ± 1
WLKVLG	4.571 ± 0.028
WLLWNSECIANCAFTRYSMF	-0.079 ± 0.33
WLMGVRG	-1.01 ± 0.64
WLNYLGFISFRICH	-1.66 ± 0.41
WLTSS	-0.173 ± 0.54
WLVRLVIGGFTQSGMWLTEI	1.06 ± 0.16
WLYCVVTS	1.63 ± 0.42
WLYSIDYNFLKRVIGYCYRN	inactive
WMSMKFCFIFLPFYKSSVCM	1.91 ± 0.18
WNKLSLA	0.443 ± 0.49
WNMMPRASEQFYYRL	inactive
WNVWVYLAAAVSGGGPTCVS	4.72 ± 0.076
WPRFTCCPTYYICIAQSPGQ	9.807 ± 0.035
WPTSSTYQHWFD	0.606 ± 0.41
WPVGLFKSGAISAV	-0.475 ± 0.55
WPYRMMR	0.554 ± 0.74
WRGSLTSPAPGET	1.87 ± 0.17
WRPLWSRAIFGS	inactive
WSCQESIVRSRDDYSRFRCG	3.42 ± 0.13
WSFHRR	-0.552 ± 0.36
WSKVMCQWFSDIYSVTNFGC	2.76 ± 0.085
WSLDSYSMTAVF	-0.467 ± 0.39
WSLKKLITDRFGSSCSAALH	inactive
WSNGR	0.329 ± 0.44

Substance	amyloid nucleation score
WSYLVLSPMRRNRVRMVHII	-0.517 ± 0.63
WSYQYRLPILTTFSDFVWRK	-0.339 ± 0.28
WTGHMPMSLVHLMIGWHGHY	0.637 ± 0.62
WTGSFRMSRQHMWNSTSFQM	-0.215 ± 0.5
WTNVYAIVFR	4.65 ± 0.044
WTRCPQSRYHVLVRVYSYWA	0.193 ± 0.27
WVCHVNMRSEYMDIIMEGTN	inactive
WVCSFHYAEYSLRVIAARFP	0.081 ± 0.8
WVGYLRPKKESLCLGFEDSK	3.04 ± 0.12
WVIVRLIITTDVQCNYVFLP	0.248 ± 0.38
WVSRTNELFGPDRLWIDLWH	-0.01 ± 1
WVTTNMCYTHQFMFGANLVV	0.276 ± 1
WVYDVQSCIMTPMSGYWFIL	-0.476 ± 0.36
WVYKWIWRLFDGFHHQLMLS	inactive
WWFYAYVYWRW	-0.403 ± 0.43
WWGGINSVLVTDEWLVRLGK	-0.166 ± 0.19
WWLSGA	0.898 ± 0.35
WWNEYSH	-1.01 ± 0.39
WYAAGLKNR	-0.418 ± 1
WYALARCYCDGPFSGGWFRM	-0.022 ± 0.27
WYIKF	1.54 ± 0.3
WYKVDFNAWLFCKTIAHIFA	-1.1 ± 0.45
WYSMISLSRTNIYRMFYVPV	-0.453 ± 0.53
WYSSGMTGIIRRVDKWCAFS	-0.939 ± 0.45
WYSVLSFDSFFWPWALLVVY	-1.16 ± 0.49

Substance	amyloid nucleation score
YAFHSSWYADRSALLQLN	0.434 ± 0.3
YAFQGHGNFETGSYPEVLAA	0.098 ± 0.49
YAIDRRKSL	inactive
YAIFYGRLNMCGSGLSVPRE	0.381 ± 0.62
YALRLLHGSYNSNT	3.31 ± 0.084
YANVA	-1.65 ± 0.75
YARGNFKSLCCPMV	-0.927 ± 0.78
YASISI	inactive
YCAFSMYMFKGIIRYAICVV	-1.25 ± 0.38
YCGGFGGFWVEYWWDKYPTC	-0.171 ± 0.23
YCGRWELAVWY	-0.679 ± 1.1
YCGVSLFSINTYSY	6.94 ± 0.05
YCHLVV	2.04 ± 0.087
YCHPFVRHRLKLCTDACY	-0.174 ± 0.31
YCHPILMRYKPVYTCHYSLM	4.86 ± 0.053
YCKQNESVLDPSIDSLRVLP	0.673 ± 0.26
YCSLLL	4.79 ± 0.074
YCTGPVIWPWHKGLLSWYAW	1.19 ± 0.57
YCYKSCCRDKLY	-0.072 ± 1.1
YDGSVKMGVFCGVRVYAPVS	-0.191 ± 1.1
YDLSLVWWSTMFFRLCSLGC	-0.601 ± 0.41
YDQSICLVRNVIAIYDMGSV	6.81 ± 0.084
YDVRLFKLTTTSFAIVLSEW	0.823 ± 0.21
YEGPWQLIVVSTISVFTNSC	-0.156 ± 0.38
YELNSLMKMSYAEQFPKTWA	0.447 ± 0.46

Substance	amyloid nucleation score
YEPRSNLCCIINTIKFPKTI	6.169 ± 0.031
YETCSFKNPTFFPRNLYKMW	-0.103 ± 0.46
YEVHDDLYYTNKLRTRANGV	1.46 ± 0.43
YEVTRRVSWAFDRMYCRVNR	0.101 ± 0.55
YFCRMMCLNRWIGRLLFRCN	0.775 ± 0.62
YFGGFAKRQSTLPATRKYRL	1.34 ± 0.52
YFGSIIIYRIPAVPQILSVN	inactive
YFIGFSSSMNFGYFMRVYRI	inactive
YFNPI	5.196 ± 0.047
YFNRIYYTDIYNMVALVICF	4.4 ± 0.12
YFSDLDAL	inactive
YFSGCSSFVS	-0.046 ± 0.49
YFTNFWLLCLLSG	4.34 ± 0.079
YFWDQGLHPVSFRESTYDLV	-0.243 ± 1.1
YGGDVSP	0.1 ± 0.4
YGHFWDFGVPIASSISYKKG	-0.029 ± 0.79
YGIRYYICKFMLKSFICSWY	-1.33 ± 1.1
YGLGKTVFTTDGPGMLNGQA	1.18 ± 0.47
YGPLTIDGFRHAYV	0.95 ± 0.29
YGRCVDLFCGIRYLHGSRLA	-0.299 ± 1.1
YGRGWHCTLYCIN	0.008 ± 0.8
YGTCFS	0.191 ± 0.47
YGWFFVYDEVLLFISYSNVV	inactive
YGYKMVTSYVGFL	0.753 ± 0.81
YGYSIYLFTGCVKTVLFVSD	4.68 ± 0.048

Substance	amyloid nucleation score
YHCPVSW	-0.254 ± 0.32
YHEVFLTLSIEWRMMLWVG	-0.318 ± 0.28
YHGYLPD	-0.826 ± 0.63
YHKAIFFGF	-0.563 ± 0.64
YHLLGALYNDAWVIWETTVL	-0.116 ± 0.76
YHSTTLTFERAQPSHNNTRL	3.32 ± 0.1
YHVVVMRSVYTVLTYNRVGA	0.334 ± 0.65
YHYNNNRWVTGHFQWIWSLY	6.453 ± 0.029
YIIFGSRLVDRGSLQ	2.95 ± 0.16
YIIIYLTRHTGVRDVYVSGG	-0.79 ± 1
YIISYFLKMGSQ	4.95 ± 0.092
YILRMLLRVLSVCVCSLQRS	-0.091 ± 0.79
YILRSANLM	-0.406 ± 0.3
YIMTYDYVCKNVGWYFTRC	inactive
YIPARSRMGYVAQKLGTTRL	-0.025 ± 0.61
YIPLVVLHFSVRVWELSYWS	0.115 ± 1
YISFVGW	-2.23 ± 0.62
YISGQWCLMCRRRGISACVR	-0.182 ± 0.55
YISRILYHNGKSDRDGQRDY	-0.119 ± 0.65
YISVCSYCH	4.9 ± 0.056
YITAGFKESTSGQRQLRSWL	2.08 ± 0.083
YIVLCYSFRFVFF	inactive
YKCRDLFGGRQINREHYLCY	-1.26 ± 0.62
YKISDRVALISYPNFAIVWT	-2.25 ± 0.78
YKMPK	0.443 ± 0.8

Substance	amyloid nucleation score
YKSDYSKLLCWKNYKFWLVC	-1.07 ± 0.37
YLASNLEDKWVWDGFMLVSR	0.356 ± 0.74
YLDTHWIYY	0.056 ± 0.63
YLFKPSPTSHYCAFCTVYRN	3.84 ± 0.079
YLGLPLQDLRRVIMSEHVLV	0.779 ± 0.37
YLGTDGFNDGLVGLTTNIMS	-0.798 ± 0.47
YLHHIRCGYWVVVFVSTGSA	-0.252 ± 0.41
YLIPFMYAKCLSWVILRK	0.029 ± 0.23
YLLGKSYF	-1.08 ± 0.36
YLLRYYGGSFNHLMCWFRSP	2.6 ± 0.06
YLLSNWTNKVSWFLCVRPQS	2.23 ± 0.12
YLLYYNKWGLIK	inactive
YLNCDSFMRSVVYFNLWDIG	-1.57 ± 0.75
YLPRRSGRLRPGMRNNMPFR	0.12 ± 0.28
YLRFYRSIINILIKGSAFCV	-1.49 ± 1.1
YLRRGNKLCESTLVVTCTMV	-0.087 ± 1
YLRRL	-0.775 ± 0.61
YLTEALPDRSRYRSTSVMCV	1.86 ± 0.32
YLVNNNFFVTIVILVWRTGV	1.39 ± 0.18
YMCCFYAVGFPFDYKLGFVR	4.35 ± 0.068
YMDNCSYRYSVTESTRNTAG	0.17 ± 0.74
YMHILLLRFVQILTIRIVLL	-0.85 ± 0.37
YMKNSGHDMASLRNIYLIFR	5.15 ± 0.075
YMLINAMVTFFMHGVDRKRR	5.516 ± 0.055
YMLLRSYVFTKLLRLHCYRN	inactive

Substance	amyloid nucleation score
YMLNHVIQNMSSWCEVT	-0.103 ± 0.34
YMRVLGVDGHIRCVWLD	inactive
YMRVLYIRRLWIHFL	1.92 ± 0.18
YMYGVNNASSF	5.79 ± 0.054
YMYILAVLSVSSLIVNYDLK	inactive
YNFLWWSMKDT	inactive
YNKGWR	inactive
YNMGNSGLGGTRWEIICFAI	-1.02 ± 0.5
YNPSYLMELNEV	-0.376 ± 0.55
YNRLMVGRPRLQHLSL	-1.51 ± 0.39
YNTQVCEVVMWGQHPTTLSS	-0.418 ± 0.41
YNWVNTPGHVNL	-1.4 ± 0.62
YNYLCWNRKKGANRTCVSGR	-0.502 ± 0.44
YPFILVVTIEYACLVRRLGV	-0.309 ± 0.23
YPGWPMKTVQ	3.97 ± 0.05
YPRALIHVWKKSLVHTSRCR	7.14 ± 0.079
YPYSPLSKRRNLRWINFVRC	-1.46 ± 1.1
YQAGWDEVGSLCLRVRNEKL	4.38 ± 0.074
YQGNIRVGISRSRK	0.36 ± 0.41
YQGSLGSDMAISKLFDSDYE	-0.656 ± 1.1
YQHDT	0.871 ± 0.27
YRCSDLYK	2.47 ± 0.29
YRDRINSNYFALDFNILLHY	3.57 ± 0.046
